Data on two molecules can be found in paper PMC12713037, “FBXO44 Regulates FOXP1 Degradation Through AURKA‐Dependent Phosphorylation to Promote Colorectal Cancer Progression” (Advanced Science, 2025).

For test [1], the target named is FBXO44 (F-box only protein 44) (UniProt Q9H4M3). The experiment in a line: co-IP with anti-Flag, Western blot. Conditions: reference: Myc-FOXP1 wild type with His-AURKA; sites S440. On the technique in general: Immunoblotting shows a protein as a band on a membrane.
Another test addresses T1, Purified Myc-FOXP1 (UniProt Q9H334 1-677).
T1 construct: Forkhead box protein P1 (FOXP1), Myc-tagged, purified for the GST pull-down; source: purified
T1 sequence (looked up): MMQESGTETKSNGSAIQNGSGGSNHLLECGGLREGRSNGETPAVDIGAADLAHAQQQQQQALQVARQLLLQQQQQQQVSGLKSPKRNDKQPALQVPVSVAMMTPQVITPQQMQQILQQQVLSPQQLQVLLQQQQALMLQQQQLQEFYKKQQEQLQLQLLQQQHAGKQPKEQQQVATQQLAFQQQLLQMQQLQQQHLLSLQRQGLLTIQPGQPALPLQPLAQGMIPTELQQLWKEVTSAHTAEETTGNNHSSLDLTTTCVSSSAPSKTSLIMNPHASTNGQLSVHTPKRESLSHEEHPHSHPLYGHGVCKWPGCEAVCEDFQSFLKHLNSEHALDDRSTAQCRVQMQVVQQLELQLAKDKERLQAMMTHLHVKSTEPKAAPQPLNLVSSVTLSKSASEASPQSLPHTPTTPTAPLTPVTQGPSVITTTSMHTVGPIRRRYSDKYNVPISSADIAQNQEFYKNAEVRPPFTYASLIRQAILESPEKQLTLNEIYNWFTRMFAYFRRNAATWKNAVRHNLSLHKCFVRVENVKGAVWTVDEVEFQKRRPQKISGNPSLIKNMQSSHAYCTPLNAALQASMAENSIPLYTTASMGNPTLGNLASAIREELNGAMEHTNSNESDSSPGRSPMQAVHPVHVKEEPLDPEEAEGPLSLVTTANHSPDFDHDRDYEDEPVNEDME
Nature of the test: pull-down; GST-FBXO44 coupled to glutathione-Sepharose beads incubated with purified Myc-FOXP1; retained proteins analysed by immunoblot. As to conditions: both partners purified.

In the case of “FOXP1 (Forkhead box protein P1) (from UniProt Q9H334) Myc-FOXP1 S440A with His-AURKA”, the “binding against the reference” value in test [1] is “weaker”.

B1: Recombinant GST-FBXO44 (natural protein, UniProt Q9H4M3 1-255, looked up)
chain: MAVGNINELPENILLELFTHVPARQLLLNCRLVCSLWRDLIDLVTLWKRKCLREGFITEDWDQPVADWKIFYFLRSLHRNLLHNPCAEEGFEFWSLDVNGGDEWKVEDLSRDQRKEFPNDQVKKYFVTSYYTCLKSQVVDLKAEGYWEELMDTTRPDIEVKDWFAARPDCGSKYQLCVQLLSSAHAPLGTFQPDPATIQQKSDAKWREVSHTFSNYPPGVRYIWFQHGGVDTHYWAGWYGPRVTNSSITIGPPLP
notes: F-box only protein 44 (FBXO44) fused to GST; source: purified from bacteria
Turning to B1, in the test with Purified Myc-FOXP1, the binding result was “binds”.
